In US20050203288A1 (DEUTSCHES KREBSFORSCHUNGSZENTRUM STIFUNG DES OFFENTLICHEN …, published 2005):

How the values were obtained:
Assay in all cases: yeast two-hybrid
Livin-β = molecular target: T1, Livin-β (UniProt Q96CA5-2 1-280, limits assumed)
T1 construct: the beta isoform is meant; also called Livin (beta)
T1 sequence (looked up): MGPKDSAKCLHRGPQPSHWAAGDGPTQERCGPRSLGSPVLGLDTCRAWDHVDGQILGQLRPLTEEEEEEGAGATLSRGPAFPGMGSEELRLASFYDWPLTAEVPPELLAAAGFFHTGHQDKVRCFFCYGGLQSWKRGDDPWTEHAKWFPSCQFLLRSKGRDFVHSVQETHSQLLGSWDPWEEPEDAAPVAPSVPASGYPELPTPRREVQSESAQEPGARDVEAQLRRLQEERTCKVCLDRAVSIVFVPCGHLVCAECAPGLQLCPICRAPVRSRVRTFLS

c-IAP-1 = molecular target: T2, c-IAP-1 (UniProt Q13490 1-618, limits assumed)
T2 construct: construct not described

c-IAP-2 = molecular target: T3, c-IAP-2 (UniProt Q13489 1-604, limits assumed)
T3 construct: construct not described; also called c-LAP-2

XIAP = molecular target: T4, XIAP (UniProt P98170 1-497, limits assumed)
T4 construct: construct not described

Survivin = molecular target: T5, Survivin (UniProt O15392 1-142)
T5 construct: construct not described; also called surivin
T5 sequence (O15392 whole entry): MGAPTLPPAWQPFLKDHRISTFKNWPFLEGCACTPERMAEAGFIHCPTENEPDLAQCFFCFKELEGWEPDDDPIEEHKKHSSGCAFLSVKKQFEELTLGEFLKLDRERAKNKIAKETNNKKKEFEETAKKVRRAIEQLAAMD

T3 sequence (Q13489 whole entry): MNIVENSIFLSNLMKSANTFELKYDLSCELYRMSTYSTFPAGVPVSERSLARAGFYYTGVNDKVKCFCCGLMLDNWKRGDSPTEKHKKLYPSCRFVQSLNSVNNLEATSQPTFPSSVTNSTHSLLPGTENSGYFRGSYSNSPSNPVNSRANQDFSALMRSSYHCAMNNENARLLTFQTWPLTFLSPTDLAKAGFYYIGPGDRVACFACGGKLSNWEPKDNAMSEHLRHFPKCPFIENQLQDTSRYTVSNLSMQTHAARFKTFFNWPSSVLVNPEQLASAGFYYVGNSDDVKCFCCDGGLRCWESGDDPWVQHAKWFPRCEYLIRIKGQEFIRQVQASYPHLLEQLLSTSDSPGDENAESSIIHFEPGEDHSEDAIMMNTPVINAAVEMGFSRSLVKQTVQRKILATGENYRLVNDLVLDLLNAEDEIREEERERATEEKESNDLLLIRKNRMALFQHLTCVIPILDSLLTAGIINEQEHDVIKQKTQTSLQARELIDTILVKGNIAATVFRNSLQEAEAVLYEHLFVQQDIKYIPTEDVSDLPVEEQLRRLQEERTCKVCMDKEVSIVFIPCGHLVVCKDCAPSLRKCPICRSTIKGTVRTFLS
T2 sequence (Q13490 whole entry): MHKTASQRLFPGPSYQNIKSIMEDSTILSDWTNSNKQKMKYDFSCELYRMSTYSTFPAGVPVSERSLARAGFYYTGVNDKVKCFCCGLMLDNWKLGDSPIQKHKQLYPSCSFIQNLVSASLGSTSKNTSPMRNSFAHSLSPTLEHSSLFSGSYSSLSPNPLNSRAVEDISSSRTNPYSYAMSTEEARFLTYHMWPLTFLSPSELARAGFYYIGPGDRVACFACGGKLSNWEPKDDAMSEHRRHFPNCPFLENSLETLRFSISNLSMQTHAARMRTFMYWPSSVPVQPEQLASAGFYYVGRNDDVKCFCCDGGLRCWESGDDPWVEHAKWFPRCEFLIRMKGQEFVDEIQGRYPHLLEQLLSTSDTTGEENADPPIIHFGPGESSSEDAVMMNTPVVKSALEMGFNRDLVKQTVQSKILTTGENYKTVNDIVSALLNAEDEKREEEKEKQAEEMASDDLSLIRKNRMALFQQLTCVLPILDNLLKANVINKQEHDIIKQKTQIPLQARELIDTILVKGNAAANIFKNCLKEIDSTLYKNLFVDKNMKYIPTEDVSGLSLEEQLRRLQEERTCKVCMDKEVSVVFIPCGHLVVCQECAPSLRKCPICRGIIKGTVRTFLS
T4 sequence (P98170 whole entry): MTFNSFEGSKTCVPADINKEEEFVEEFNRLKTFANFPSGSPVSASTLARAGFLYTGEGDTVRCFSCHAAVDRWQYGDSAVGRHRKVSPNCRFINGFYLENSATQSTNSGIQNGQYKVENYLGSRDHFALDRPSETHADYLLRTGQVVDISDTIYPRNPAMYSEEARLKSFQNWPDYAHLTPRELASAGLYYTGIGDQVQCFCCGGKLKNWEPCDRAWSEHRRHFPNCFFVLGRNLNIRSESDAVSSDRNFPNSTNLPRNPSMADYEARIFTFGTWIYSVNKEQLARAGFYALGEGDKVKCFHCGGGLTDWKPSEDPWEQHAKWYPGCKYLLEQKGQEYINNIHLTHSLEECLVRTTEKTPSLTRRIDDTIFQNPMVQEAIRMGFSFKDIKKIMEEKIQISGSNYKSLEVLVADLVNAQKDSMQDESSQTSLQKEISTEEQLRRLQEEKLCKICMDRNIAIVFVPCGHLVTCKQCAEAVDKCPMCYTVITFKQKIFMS

| Binder | binding result (Livin-β) | binding result (c-IAP-1) | binding result (c-IAP-2) | binding result (XIAP) | binding result (Survivin) |
| --- | --- | --- | --- | --- | --- |
| GPHSSAHDRIWLRVRGLRIILLVLRSAEIYES (peptide, not shown: large carriers, that construct is not described for linear peptides) [peptide number 16] | binds | no binding | no binding | no binding | no binding |
| GPYPYLRILLVQKIACVRRALWVLRSAEIYES (peptide, not shown: large carriers, that construct is not described for linear peptides) [peptide number 90] | binds | no binding | no binding | no binding | no binding |
| GSRFRVFVCSLFSFLSGRGGGVVVLRSAEIYES (peptide, not shown: large carriers, that construct is not described for linear peptides) [peptide number 5] | binds | no binding | no binding | no binding | no binding |
| GSGCVRIRVGIVRRMLFLRFVFLVP (peptide, not shown: large carriers, that construct is not described for linear peptides) [peptide number 40] |  | no binding | no binding | no binding | no binding |
| GPFKRCHERLVAFARCWFMWSMVLRSAEIYES (peptide, not shown: large carriers, that construct is not described for linear peptides) [peptide number 7] | binds | no binding | no binding | no binding | no binding |
| GPFPFDYPRWIMIVLLRGVLRSAEIYES (peptide, not shown: large carriers, that construct is not described for linear peptides) [peptide number 69] | binds | no binding | no binding | no binding | no binding |

Further lines, with some results ahead:

| binding result (Livin-β) | binding result (c-IAP-1) | binding result (c-IAP-2) | binding result (XIAP) | Binder | binding result (Survivin) |
| --- | --- | --- | --- | --- | --- |
| binds | no binding | no binding | no binding | GSGCGCFVRGRIVRIRCVILLLRVLRSAEIYES (peptide, not shown: large carriers, that construct is not described for linear peptides) [peptide number 15] | no binding |
| binds | no binding | no binding | no binding | GAGLGRVIRLRIVVLRCIFLLFRVLRSAEIYES (peptide, not shown: large carriers, that construct is not described for linear peptides) [peptide number 65] | no binding |
| binds | no binding | no binding | no binding | GPWWKDRGVLVRLCVLRLVVGVVLRSAEIYES (peptide, not shown: large carriers, Mammalian two-hybrid construct not described for linear peptides) [peptide number 54] | no binding |
| binds | no binding | no binding | no binding | GSRCIRRRISILFFVFRVLRSRRVLRSAEIYES (peptide, not shown: large carriers, that construct is not described for linear peptides) [peptide number 75] | no binding |
| binds | no binding | no binding | binds | GPFSEHARGHVVTICRLRLLFWLLRSAEIYES (peptide, not shown: large carriers, that construct is not described for linear peptides) [peptide number 77] | no binding |
